Molecular target: MYC-LRRK2 (leucine rich repeat kinase 2), wild type (human, UniProt Q5S007 1-2527)
Experiment: co-IP

Chain of MYC-LRRK2 (leucine rich repeat kinase 2), wild type (Q5S007 whole entry): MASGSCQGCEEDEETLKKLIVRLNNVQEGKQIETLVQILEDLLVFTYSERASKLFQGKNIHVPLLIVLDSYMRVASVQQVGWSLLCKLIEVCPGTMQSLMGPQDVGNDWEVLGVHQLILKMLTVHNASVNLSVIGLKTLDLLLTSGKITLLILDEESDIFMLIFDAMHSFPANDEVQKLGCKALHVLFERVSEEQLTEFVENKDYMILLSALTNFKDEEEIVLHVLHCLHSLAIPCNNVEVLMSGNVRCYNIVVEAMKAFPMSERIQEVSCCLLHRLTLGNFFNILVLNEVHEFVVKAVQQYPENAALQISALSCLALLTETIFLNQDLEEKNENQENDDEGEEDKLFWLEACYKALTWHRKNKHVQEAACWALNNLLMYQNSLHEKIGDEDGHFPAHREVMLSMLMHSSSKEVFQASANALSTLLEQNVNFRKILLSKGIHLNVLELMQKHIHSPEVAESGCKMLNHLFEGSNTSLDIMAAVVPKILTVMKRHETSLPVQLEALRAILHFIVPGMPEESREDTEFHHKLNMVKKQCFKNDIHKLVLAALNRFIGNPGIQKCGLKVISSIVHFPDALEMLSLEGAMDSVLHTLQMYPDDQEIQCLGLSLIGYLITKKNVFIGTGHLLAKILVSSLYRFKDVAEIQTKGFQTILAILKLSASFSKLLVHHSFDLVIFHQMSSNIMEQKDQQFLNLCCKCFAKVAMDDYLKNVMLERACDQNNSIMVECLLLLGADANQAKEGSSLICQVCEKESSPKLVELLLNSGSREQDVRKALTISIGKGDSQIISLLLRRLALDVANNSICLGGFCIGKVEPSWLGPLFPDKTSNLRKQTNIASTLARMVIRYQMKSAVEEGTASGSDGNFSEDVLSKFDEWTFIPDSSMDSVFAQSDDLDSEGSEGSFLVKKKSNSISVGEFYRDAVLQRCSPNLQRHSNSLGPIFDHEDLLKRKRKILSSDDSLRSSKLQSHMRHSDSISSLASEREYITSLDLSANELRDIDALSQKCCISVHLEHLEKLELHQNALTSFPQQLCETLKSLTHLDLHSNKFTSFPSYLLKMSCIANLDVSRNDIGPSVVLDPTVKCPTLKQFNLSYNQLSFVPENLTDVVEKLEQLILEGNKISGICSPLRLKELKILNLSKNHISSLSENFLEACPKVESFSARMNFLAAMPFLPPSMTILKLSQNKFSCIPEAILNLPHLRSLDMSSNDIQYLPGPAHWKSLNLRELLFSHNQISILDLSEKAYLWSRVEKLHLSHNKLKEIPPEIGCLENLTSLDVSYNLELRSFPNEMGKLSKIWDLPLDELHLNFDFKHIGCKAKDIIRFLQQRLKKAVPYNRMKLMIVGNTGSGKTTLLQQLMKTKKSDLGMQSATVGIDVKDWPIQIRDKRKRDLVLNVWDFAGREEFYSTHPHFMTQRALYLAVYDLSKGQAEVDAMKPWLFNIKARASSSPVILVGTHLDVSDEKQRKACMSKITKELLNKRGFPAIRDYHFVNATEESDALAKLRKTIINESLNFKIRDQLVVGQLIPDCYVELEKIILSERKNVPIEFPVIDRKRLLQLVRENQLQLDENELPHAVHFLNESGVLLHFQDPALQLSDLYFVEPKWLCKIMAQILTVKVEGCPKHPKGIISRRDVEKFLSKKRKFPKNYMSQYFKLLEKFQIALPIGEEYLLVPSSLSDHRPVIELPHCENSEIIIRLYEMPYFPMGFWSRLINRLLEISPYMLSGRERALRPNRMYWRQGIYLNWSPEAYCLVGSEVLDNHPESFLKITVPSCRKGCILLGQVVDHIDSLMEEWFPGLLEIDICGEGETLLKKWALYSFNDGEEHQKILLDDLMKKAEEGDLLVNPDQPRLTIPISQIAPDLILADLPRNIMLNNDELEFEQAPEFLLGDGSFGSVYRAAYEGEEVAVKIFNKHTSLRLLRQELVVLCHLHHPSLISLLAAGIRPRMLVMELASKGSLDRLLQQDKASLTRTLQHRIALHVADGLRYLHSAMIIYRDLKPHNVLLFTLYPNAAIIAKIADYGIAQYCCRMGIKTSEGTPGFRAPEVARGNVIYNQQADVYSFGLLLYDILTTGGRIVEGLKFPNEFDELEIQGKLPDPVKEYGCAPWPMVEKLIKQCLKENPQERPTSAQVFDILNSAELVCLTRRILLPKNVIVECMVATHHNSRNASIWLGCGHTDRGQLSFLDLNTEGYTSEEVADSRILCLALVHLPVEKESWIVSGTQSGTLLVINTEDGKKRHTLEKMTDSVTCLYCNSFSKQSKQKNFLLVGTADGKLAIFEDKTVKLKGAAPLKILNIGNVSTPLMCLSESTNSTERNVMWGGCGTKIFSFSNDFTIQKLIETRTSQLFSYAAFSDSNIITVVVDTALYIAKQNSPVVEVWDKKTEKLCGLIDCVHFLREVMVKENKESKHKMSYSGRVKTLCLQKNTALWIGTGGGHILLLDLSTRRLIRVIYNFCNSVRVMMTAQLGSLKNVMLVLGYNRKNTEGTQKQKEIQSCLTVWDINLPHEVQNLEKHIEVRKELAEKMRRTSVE

B1: GST-AP2M1, recombinant (natural protein)
chain: MIGGLFIYNHKGEVLISRVYRDDIGRNAVDAFRVNVIHARQQVRSPVTNIARTSFFHVKRSNIWLAAVTKQNVNAAMVFEFLYKMCDVMAAYFGKISEENIKNNFVLIYELLDEILDFGYPQNSETGALKTFITQQGIKSQHQTKEEQSQITSQVTGQIGWRREGIKYRRNELFLDVLESVNLLMSPQGQVLSAHVSGRVVMKSYLSGMPECKFGMNDKIVIEKQGKGTADETSKSGKQSIAIDDCTFHQCVRLSKFDSERSISFIPPDGEFELMRYRTTKDIILPFRVIPLVREVGRTKLEVKVVIKSNFKPSLLAQKIEVRIPTPLNTSGVQVICMKGKAKYKASENAIVWKIKRMAGMKESQISAEIELLPTNDKKKWARPPISMNFEVPFAPSGLKVRYLKVFEPKLNYSDHDVIKWVRYIGRSGIYETRC
Does B1 bind?
Result: binds

Source: paper doi:10.1101/2020.05.27.119388 (bioRxiv, 2020)
